Measured values taken from the supplement of paper PMC10126150.
± gives the standard deviation of the averaged measurements.

These sequences were tested on ATP (assay: switch fluorescence ratio, 500 uM ATP over buffer (Cy3 cluster intensity, sum of 5 cycles each) (fold (ratio)); higher = stronger signal-on switching upon ATP binding; sequences stand for … in TCGTCGGCAGCGTCAGATGTGTATAAGAGACAGTTTTTTTTTTTTTTTTTTTTTTTTT…TC). Conditions: aptamer strand: ATP DNA aptamer (quencher-CACCTGGGGGAGTATTGCGGAGGAAGG + anchor), 100 nM annealed; ATP concentration: 500 uM.
Procedure, shortened: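 Values give the fluorescence ratio for each switch-domain sequence, averaged from per-cluster ratios of summed target-cycle to summed buffer-cycle Cy3 intensity. The Cy3-labelled switching-strand clusters sat on a modified Illumina MiSeq flow-cell, were annealed to 100 nM quencher-labelled ATP aptamer, and were imaged in selection buffer, then after 15 min with 500 uM ATP at 22 °C. Five cycles ran with NaOH stripping and re-annealing between them, and clusters outside 100-1000 RFU were excluded.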
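Further: ATP exposure 15 min at 22 °C before imaging.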

Row | Sequence | switch fluorescence ratio
1 | ATAGAACGGG | 1.01 ± 0.025
2 | ATAGAACTTT | 0.9968 ± 0.0095
3 | ATAGAATAGA | 0.985 ± 0.02
4 | ATAGACAGTG | 1.02 ± 0.13
5 | ATAGACGTAT | 1.01 ± 0.011
6 | ATAGACGTTA | 1.07 ± 0.049
7 | ATAGAGAGAG | 1.02 ± 0.014
8 | ATAGAGCTTG | 0.997 ± 0.024
9 | ATAGAGGCAC | 1.09 ± 0.099
10 | ATAGAGTTAG | 0.982 ± 0.011
11 | ATAGATGCTT | 1.002 ± 0.003
12 | ATAGATGTCT | 0.992 ± 0.019
13 | ATAGATTCTC | 0.977 ± 0.025
14 | ATAGCATGTA | 0.991 ± 0.01
15 | ATAGCGAGGA | 1.05 ± 0.034
16 | ATAGCGGACA | 0.967 ± 0.033
17 | ATAGCTAGTG | 0.973 ± 0.013
18 | ATAGCTGATT | 0.983 ± 0.034
19 | ATAGCTTGAG | 1.01 ± 0.04
20 | ATAGGAACTT | 1.02 ± 0.013
21 | ATAGGAGCAG | 1.01 ± 0.048
22 | ATAGGAGTCG | 1 ± 0.02
23 | ATAGGAGTTA | 0.9814 ± 0.0071
24 | ATAGGAGTTC | 1.03 ± 0.023
25 | ATAGGATTGC | 0.982 ± 0.011

Row | Sequence | switch fluorescence ratio
26 | ATAGGATTTG | 1.032 ± 0.0096
27 | ATAGGATTTT | 0.985 ± 0.034
28 | ATAGGCACGG | 1 ± 0.04
29 | ATAGGCCGTA | 1.03 ± 0.045
30 | ATAGGCGCGG | 1.01 ± 0.02
31 | ATAGGCGGAA | 1.02 ± 0.036
32 | ATAGGGAATT | 1 ± 0.024
33 | ATAGGGGAAT | 0.9872 ± 0.0072
34 | ATAGGGGATT | 1 ± 0.038
35 | ATAGGGGGAG | 1 ± 0.033
36 | ATAGGGGGCT | 0.9892 ± 0.0096
37 | ATAGGGGGTT | 0.98 ± 0.022
38 | ATAGGGGTTT | 1.013 ± 0.0055
39 | ATAGGGTATA | 0.981 ± 0.055
40 | ATAGGGTGTG | 1.02 ± 0.076
41 | ATAGGTGTTG | 1.02 ± 0.025
42 | ATAGTACGCG | 0.992 ± 0.03
43 | ATAGTAGTCA | 1.01 ± 0.024
44 | ATAGTCAAAG | 0.998 ± 0.034
45 | ATAGTGACGT | 0.9826 ± 0.0075
46 | ATAGTGATAC | 3.28 ± 0.057
47 | ATAGTGGTGA | 1.03 ± 0.048
48 | ATAGTGTGGT | 0.986 ± 0.083
49 | ATAGTGTTGG | 0.986 ± 0.029
50 | ATAGTTATGT | 1.0153 ± 0.00095

Row | Sequence | switch fluorescence ratio
51 | ATAGTTATTG | 1.01 ± 0.022
52 | ATAGTTCCAG | 1.002 ± 0.0087
53 | ATAGTTCCAT | 0.9783 ± 0.005
54 | ATAGTTCTAA | 0.9939 ± 0.0048
55 | ATAGTTCTAC | 0.987 ± 0.0074
56 | ATAGTTGGAT | 0.98 ± 0.011
57 | ATAGTTTGAC | 1.008 ± 0.0015
58 | ATATAAAAAA | 1.01 ± 0.026
59 | ATATAAGAAA | 1.03 ± 0.041
60 | ATATAAGAGC | 1.03 ± 0.02
61 | ATATAATAGG | 0.9778 ± 0.0022
62 | ATATACTATG | 1.05 ± 0.026
63 | ATATAGACGG | 0.975 ± 0.024
64 | ATATAGATTG | 1.03 ± 0.038
65 | ATATAGGCTA | 0.995 ± 0.011
66 | ATATAGGGGA | 1.02 ± 0.051
67 | ATATAGTGTA | 0.99 ± 0.029
68 | ATATATAAAT | 0.978 ± 0.033
69 | ATATATGCAG | 0.986 ± 0.018
70 | ATATATGGGG | 0.987 ± 0.045
71 | ATATCCCTGT | 1.009 ± 0.0049
72 | ATATCGAGGC | 0.9803 ± 0.0089
73 | ATATCGAGTT | 0.9894 ± 0.00022
74 | ATATCGGCGT | 1.55 ± 0.82
75 | ATATCTAGCC | 0.9611 ± 0.0042

Row | Sequence | switch fluorescence ratio
76 | ATATCTTATG | 0.964 ± 0.023
77 | ATATGAATAG | 1.01 ± 0.018
78 | ATATGAGCAG | 1.02 ± 0.024
79 | ATATGATGTG | 1.01 ± 0.03
80 | ATATGCCCTA | 0.9674 ± 0.0077
81 | ATATGGATAC | 1.05 ± 0.045
82 | ATATGGATGA | 0.96 ± 0.03
83 | ATATGGATTG | 1 ± 0.015
84 | ATATGGCACG | 1.032 ± 0.0014
85 | ATATGGGAAA | 0.978 ± 0.025
86 | ATATGGGCTT | 0.986 ± 0.014
87 | ATATGGGGTG | 1.05 ± 0.046
88 | ATATGGGTTA | 0.9912 ± 0.001
89 | ATATGGTGAT | 1 ± 0.057
90 | ATATGTGTGA | 0.968 ± 0.029
91 | ATATGTGTTT | 1.05 ± 0.018
92 | ATATGTTTG | 0.973 ± 0.047
93 | ATATTAATTT | 0.989 ± 0.023
94 | ATATTAGACG | 1.04 ± 0.036
95 | ATATTATCAG | 0.986 ± 0.014
96 | ATATTCATCT | 0.9861 ± 0.0056
97 | ATATTCGGCG | 0.975 ± 0.022
98 | ATATTCGTG | 0.985 ± 0.013
99 | ATATTCTACT | 1.025 ± 3.1e-05
100 | ATATTCTAGA | 0.989 ± 0.029

Row | Sequence | switch fluorescence ratio
101 | ATATTCTGGG | 0.969 ± 0.015
102 | ATATTGGCAT | 1.02 ± 0.026
103 | ATATTGGCGC | 1.01 ± 0.019
104 | ATATTGGGTA | 0.997 ± 0.022
105 | ATATTGTGAC | 1.032 ± 0.004
106 | ATATTTGATA | 1.01 ± 0.039
107 | ATATTTGGGC | 0.975 ± 0.034
108 | ATATTTGTGG | 0.9843 ± 0.0088
109 | ATATTTTAGG | 0.996 ± 0.031
110 | ATATTTTGGC | 1.04 ± 0.034
111 | ATATTTTTTT | 1 ± 0.03
112 | ATCAAAACTT | 1.03 ± 0.013
113 | ATCAAAATAA | 1.06 ± 0.059
114 | ATCAAAATTG | 1.01 ± 0.027
115 | ATCAAAGCGC | 1.03 ± 0.023
116 | ATCAAGCAGT | 1.41 ± 0.47
117 | ATCAAGCCAA | 1.005 ± 0.0018
118 | ATCAAGGGGT | 1.01 ± 0.019
119 | ATCAAGTCTG | 0.9898 ± 0.0028
120 | ATCAATTGGT | 1.013 ± 0.0052
121 | ATCAATTTAA | 0.976 ± 0.039
122 | ATCAATTTCT | 0.974 ± 0.014
123 | ATCACGGGAA | 1.055 ± 0.0074
124 | ATCACGGTGC | 1.1 ± 0.061
125 | ATCAGAACAA | 1.01 ± 0.0069

Row | Sequence | switch fluorescence ratio
126 | ATCAGAGGGG | 1.03 ± 0.019
127 | ATCAGATAGC | 0.977 ± 0.018
128 | ATCAGCAACG | 1.01 ± 0.026
129 | ATCAGGAAAT | 1.01 ± 0.017
130 | ATCAGGCGTA | 0.975 ± 0.038
131 | ATCAGGGAGT | 1 ± 0.011
132 | ATCAGTGAGA | 1.03 ± 0.032
133 | ATCAGTGGGG | 0.991 ± 0.042
134 | ATCAGTGGTC | 0.936 ± 0.021
135 | ATCAGTTTTC | 0.985 ± 0.0013
136 | ATCATAGCCG | 1.07 ± 0.14
137 | ATCATGCATT | 0.989 ± 0.025
138 | ATCATGGTTG | 1.002 ± 0.0063
139 | ATCATGTACA | 0.996 ± 0.024
140 | ATCATTAACT | 1.02 ± 0.013
141 | ATCATTCTTC | 0.977 ± 0.034
142 | ATCATTGAA | 0.9864 ± 0.0087
143 | ATCATTTAAT | 1.009 ± 0.0054
144 | ATCATTTTTT | 0.9877 ± 0.0061
145 | ATCCCTTGAG | 0.992 ± 0.032
146 | ATCCGAGGGG | 1.03 ± 0.05
147 | ATCCGCGCGT | 1 ± 0.014
148 | ATCCGCTAGT | 2.16 ± 0.19
149 | ATCCGGACCC | 1.08 ± 0.1
150 | ATCCGGGGAA | 1.02 ± 0.0032

Row | Sequence | switch fluorescence ratio
151 | ATCCGGTTAC | 5.17 ± 0.68
152 | ATCCGGTTAT | 1.03 ± 0.016
153 | ATCCGTGATA | 1.77 ± 0.021
154 | ATCCTAAATT | 1.02 ± 0.0024
155 | ATCCTAATGG | 0.983 ± 0.012
156 | ATCCTAGTTT | 1.016 ± 0.00087
157 | ATCCTATTT | 1.01 ± 0.028
158 | ATCCTATTTG | 1.0056 ± 0.0008
159 | ATCCTCGGCC | 1.52 ± 0.039
160 | ATCCTCGTAA | 2.44 ± 0.32
161 | ATCCTCTGCC | 3.16 ± 0.72
162 | ATCCTGCTTT | 1.01 ± 0.069
163 | ATCGAAACCC | 1.05 ± 0.046
164 | ATCGACATAG | 0.9985 ± 0.006
165 | ATCGACGGG | 1.008 ± 0.0058
166 | ATCGAGAGGG | 1.01 ± 0.04
167 | ATCGAGGCAC | 1.056 ± 0.0061
168 | ATCGATACTT | 1.067 ± 0.0098
169 | ATCGATAGTG | 1 ± 0.03
170 | ATCGATTTTT | 1 ± 0.032
171 | ATCGCGGATT | 0.994 ± 0.023
172 | ATCGCGGGCC | 1.03 ± 0.036
173 | ATCGGAACCT | 2.15 ± 0.1
174 | ATCGGACGCT | 1.06 ± 0.023
175 | ATCGGAGGTG | 1.02 ± 0.062

Row | Sequence | switch fluorescence ratio
176 | ATCGGCAGTT | 1 ± 0.015
177 | ATCGGCATGC | 1.19 ± 0.019
178 | ATCGGGAGAC | 1.27 ± 0.21
179 | ATCGGGATAG | 1.04 ± 0.044
180 | ATCGGGGCAC | 1.1 ± 0.11
181 | ATCGGGGCGG | 0.993 ± 0.031
182 | ATCGGGTTAG | 0.998 ± 0.016
183 | ATCGGTAATT | 0.997 ± 0.029
184 | ATCGGTCATG | 0.993 ± 0.013
185 | ATCGGTGAGG | 0.971 ± 0.03
186 | ATCGGTGTGC | 0.981 ± 0.069
187 | ATCGTAGGTC | 0.982 ± 0.052
188 | ATCGTAGGTG | 1.04 ± 0.12
189 | ATCGTATACC | 1.01 ± 0.022
190 | ATCGTCATAT | 1 ± 0.036
191 | ATCGTGAGGG | 1 ± 0.053
192 | ATCGTGTGTC | 0.987 ± 0.071
193 | ATCTAGGGTC | 1.01 ± 0.031
194 | ATCTAGGTAT | 1 ± 0.029
195 | ATCTAGTACC | 0.999 ± 0.046
196 | ATCTATGATA | 0.954 ± 0.011
197 | ATCTATTATT | 1.012 ± 0.006
198 | ATCTCGCAGG | 1.08 ± 0.031
199 | ATCTCGTTA | 1.04 ± 0.053
200 | ATCTGAGTTA | 1.03 ± 0.058
